Consider four substances from patent US20250108114A1.

Test in all cases: cell-based or functional assay
In assay [1] the target is BCMA on H929 myeloma cells (human) (UniProt Q02223).
In assay [2] the target is CD19 on GFP/Luc+ Raji cells (human) (UniProt P15391).
For assay [3], the target named is truncated CD19 (amino acid 1 to 342) on SKOV3 cells (human) (UniProt P15391).
Assay [4] has as its target truncated BCMA (amino acid 1 to 98) on SKOV3 cells (human) (UniProt Q02223).

Chain of BCMA on H929 myeloma cells (human) (Q02223 whole entry): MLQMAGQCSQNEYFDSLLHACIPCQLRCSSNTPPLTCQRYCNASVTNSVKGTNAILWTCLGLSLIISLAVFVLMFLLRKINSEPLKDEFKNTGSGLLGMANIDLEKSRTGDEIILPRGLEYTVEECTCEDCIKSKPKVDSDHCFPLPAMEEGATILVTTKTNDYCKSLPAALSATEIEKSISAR
Chain of CD19 on GFP/Luc+ Raji cells (human) (P15391 20-556): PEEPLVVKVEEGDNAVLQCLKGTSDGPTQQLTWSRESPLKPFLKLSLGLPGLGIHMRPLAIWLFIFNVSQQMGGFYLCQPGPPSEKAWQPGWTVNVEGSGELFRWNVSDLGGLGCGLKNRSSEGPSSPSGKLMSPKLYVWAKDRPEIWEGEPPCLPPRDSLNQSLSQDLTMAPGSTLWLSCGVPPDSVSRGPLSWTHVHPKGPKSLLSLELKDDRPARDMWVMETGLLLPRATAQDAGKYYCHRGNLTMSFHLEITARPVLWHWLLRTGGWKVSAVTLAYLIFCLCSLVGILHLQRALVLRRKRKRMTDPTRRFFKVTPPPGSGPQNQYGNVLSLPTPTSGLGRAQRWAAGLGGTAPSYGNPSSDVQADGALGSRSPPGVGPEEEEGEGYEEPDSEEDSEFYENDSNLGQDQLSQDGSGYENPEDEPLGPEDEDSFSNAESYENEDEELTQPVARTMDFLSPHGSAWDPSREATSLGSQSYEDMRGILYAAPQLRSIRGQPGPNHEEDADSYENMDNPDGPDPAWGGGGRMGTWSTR
Chain of truncated BCMA (amino acid 1 to 98) on SKOV3 cells (human) (Q02223 1-98 limits assumed): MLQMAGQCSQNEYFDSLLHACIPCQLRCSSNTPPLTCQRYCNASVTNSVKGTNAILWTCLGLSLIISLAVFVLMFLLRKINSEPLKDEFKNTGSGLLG
Chain of truncated CD19 (amino acid 1 to 342) on SKOV3 cells (human) (P15391 20-342 limits assumed, form in doubt): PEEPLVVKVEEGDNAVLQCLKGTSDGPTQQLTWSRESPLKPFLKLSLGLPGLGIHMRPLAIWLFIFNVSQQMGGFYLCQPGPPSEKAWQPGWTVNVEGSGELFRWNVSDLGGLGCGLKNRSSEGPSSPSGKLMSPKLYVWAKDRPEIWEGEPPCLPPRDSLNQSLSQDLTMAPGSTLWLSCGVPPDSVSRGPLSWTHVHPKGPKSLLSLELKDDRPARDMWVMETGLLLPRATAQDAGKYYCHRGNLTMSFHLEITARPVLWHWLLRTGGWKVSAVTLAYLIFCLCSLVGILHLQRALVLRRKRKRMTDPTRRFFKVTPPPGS

Turning to “anti-BCMA chimeric antigen receptor of Comparative Example 3 (J6M0 scFv, hinge domain of CD8, transmembrane domain of CD8, 4-1BB, signal transduction domain of CD3ζ), on CAR-T cells of Comparative Example 3C (from UniProt P01732 183-206; Q07011 214-255; P20963 52-164)”, in assay [1], the cytotoxicity, flow cytometry with counting beads, E:T 0.1:1, 24 hours is 74.8%.

Regarding “anti-CD19-NKp30 chimeric antigen receptor of Example 1-4 (FMC63 scFv, hinge domain of IgG4, NKp30 without immunoglobulin-like domain), on CAR-T cells of Example 1-4C (from UniProt O14931 129-201; P30273 19-86)”, the Specific cell lysis ratio (at E:T = 3:1), luciferase killing assay in assay [2] turned out to be 51%.

Consider “anti-CD19-NKp30 chimeric antigen receptor of Example 1-5 (FMC63 scFv, (EAAAK)3 hinge, NKp30 without immunoglobulin-like domain), on CAR-T cells of Example 1-5C (from UniProt O14931 129-201; P30273 19-86)”, for which the Specific cell lysis ratio (at E:T = 3:1), luciferase killing assay in assay [2] was determined as 83.6%. The cytotoxicity, real-time cytotoxicity assay (xCELLigence), E:T 0.1:1 (fold against Comparative Example 1C) in assay [3] was > 3.

Regarding “anti-BCMA-NKp30 chimeric antigen receptor of Example 3 (J6M0 scFv, hinge domain of CD28, NKp30 without immunoglobulin-like domain), on CAR-T cells of Example 3C (from UniProt O14931 129-201; P30273 19-86)”, in assay [4], the cytotoxicity, real-time cytotoxicity assay (xCELLigence), E:T 0.3:1 and 0.1:1, after 36 hours of co-culture came to 100%. In assay [1], this substance had a cytotoxicity, flow cytometry with counting beads, E:T 0.1:1, 24 hours of 73.5%; a cytotoxicity, flow cytometry with counting beads, E:T 0.3:1 and 1:1, 24 hours of 80 to 85%.
